Target: the molecule itself
Assay: crystal structure

B1: P2 Cox protein of bacteriophage P2 (natural protein, UniProt P07695 1-91, looked up)
chain: MSKQVTLMTDAIPYQEFAKLIGKSTGAVRRMIDKGKLPVIDMTDPQSASGRAGEYWVYLPAWNNGLKLAYESRPKEIRDGWLMWLGLGEPR
binding result: binds

— PMC3936717 (Nucleic Acids Research, 2013)
